Experimental findings from article PMC6515374, “Virus-Like Particle Facilitated Deposition of Hydroxyapatite Bone Mineral on Nanocellulose after Exposure to Phosphate and Calcium Precursors” (International Journal of Molecular Sciences, 2019) are described below.

The data set concerns the molecule itself. In words: transmission electron microscopy; purified VLPs on carbon coated copper grids, stained with 2% uranyl acetate, 80 kV; also confirmed by atomic force microscopy (Figure S1).

B1: Tobacco mosaic virus coat protein subunit with the E50Q and D77N mutations (assembles into TMV virus-like particles) (natural protein, UniProt P69687 1-159, looked up)
chain: MSYSITTPSQFVFLSSAWADPIELINLCTNALGNQFQTQQARTVVQRQFSQVWKPSPQVTVRFPDSDFKVYRYNAVLNPLVTALLGAFDTRNRIIEVENQANPTTAETLDATRRVDDATVAIRSAINNLIVELIRGTGSYNRSSFESSSGLVWTSGPAT
notes: Tobacco mosaic virus coat protein, codon optimized for bacterial expression, in pET-21a(+) at NdeI/XhoI with a stop codon to prevent fusion to the His tag; No tag: a stop codon stands before the vector's His tag; Assembles without viral RNA into rods of 18 nm diameter and variable length; also called TMV VLPs; TMV CP; source: E. coli BL21(DES)pLysS, purified (chloroform, PEG 8000/NaCl …)
As for B1, the binding result is recorded as “binds”.
